This assay concerns the target dynein light chain LC8 (UniProt P63167). Nature of the assay: ITC; peptide (500 μM) injected into 25 μM LC8 in the cell; 25°C; 50 mM sodium phosphate, 50 mM NaCl, 1 mM sodium azide, 5 mM β-mercaptoethanol, pH 7.5; single-site model; averages of two to three experiments. A general note: In ITC the heat of successive injections is recorded.

dynein light chain LC8, sequence (P63167 whole entry): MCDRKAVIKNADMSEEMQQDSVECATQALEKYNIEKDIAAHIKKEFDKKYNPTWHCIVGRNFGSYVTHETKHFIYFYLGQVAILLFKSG

As for “HIV Tat-specific factor 1 (HTATSF1) peptide”, the Kd was found to be 10 µM and the stoichiometry N (peptide per LC8 chain) was 1.

By Kd is commonly meant the concentration at which binding is half-saturated. Higher therefore signals a looser complex.

(Values after paper PMC6607443, “Systematic identification of recognition motifs for the hub protein LC8” (Life Science Alliance, 2019).)
